Test [1] concerns the target T1, full-length human CD38 on CHO-S cells (CD38-FL-CHOS) (human, UniProt P28907 1-300).
T1 construct: whole, on cells; also called natural CD38 present on the cell surface
Put plainly: flow cytometry on CD38-FL-CHO-S cells.

The target in test [2] is T2, Fusion protein of CD38 extracellular domain with His tag: CD38-ECD-His (human, UniProt P28907 43-300).
T2 construct: unlabelled analyte in Biacore; also called human CD38-ECD-His; Human CD38-His
Briefly: SPR (Biacore), antibody captured as ligand, Human CD38-His as analyte. In general terms: Surface plasmon resonance follows binding to a sensor surface in real time, without labels.
Description: (§1) Then the human CD38-ECD-His antigen passed through the surface of the chip, and a real-time detection for the reaction signal was performed with Biacore instrument. The resulting binding and dissociation curves were fitted to calculate the affinity values. After the dissociation of each cycle was completed in the experiment, the biochip was washed and regenerated with the regeneration solution supplied in the Human Fc Capture Kit (GE).

The target in test [3] is T2, Fusion protein of CD38 extracellular …. Put plainly: ELISA, biotin-labeled CD38-ECD-His on streptavidin-coated plate. (In an ELISA, binding on a coated surface is turned into a signal by an enzyme label.)
Description: The affinity of the anti-CD38 antibodies were determined by the amount of the antibodies binding to CD38 immobilized on the ELISA plate. […] The plate was washed again and tetramethyl benzidine solution was added for color reaction. Finally, stop solution was added. OD450 was measured on a microplate reader and EC50 value was calculated.
Test [4] has the same target. Put plainly: cell-based or functional assay.
For test [5] the target is unchanged. Briefly: SPR (Biacore), antibody captured by anti-human Fc, CD38-ECD-His as analyte.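 Note: human CD38-ECD-His flowed over the captured antibody with the signal tracked in real time, and association and dissociation curves were fitted to derive the affinity values.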
Description: as §1

A word on the EC50: it is the concentration needed to bring the measured effect to its halfway point. In general, Kd refers to the concentration at which binding is half-saturated. A high value points to lower affinity. For orientation: koff means the first-order rate constant of dissociation. Read a low koff as slow dissociation. What is called kon is the rate constant with which the complex forms.

B1: hu9E (antibody, human IgG1, kappa)
heavy: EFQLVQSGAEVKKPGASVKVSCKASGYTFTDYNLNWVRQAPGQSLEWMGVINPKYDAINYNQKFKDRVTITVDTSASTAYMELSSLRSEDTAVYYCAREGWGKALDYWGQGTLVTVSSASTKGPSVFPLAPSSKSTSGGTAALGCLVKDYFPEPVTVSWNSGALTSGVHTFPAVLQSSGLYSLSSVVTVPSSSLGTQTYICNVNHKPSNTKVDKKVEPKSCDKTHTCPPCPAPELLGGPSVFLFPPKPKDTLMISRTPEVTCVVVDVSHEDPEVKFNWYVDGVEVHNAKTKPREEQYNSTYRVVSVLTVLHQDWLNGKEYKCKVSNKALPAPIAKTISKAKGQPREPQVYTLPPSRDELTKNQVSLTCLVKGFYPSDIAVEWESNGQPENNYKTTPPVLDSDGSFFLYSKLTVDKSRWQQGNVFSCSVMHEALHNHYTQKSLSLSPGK
light: EIVLTQSPATLSLSPGERATLSCRASQSIYTNLHWYQQKPGQSPRLLIKYASQSISGIPARFSGSGSGTDFTLTISSLEPEDFAVYYCQQSNSWPLTFGGGTKVEIKRTVAAPSVFIFPPSDEQLKSGTASVVCLLNNFYPREAKVQWKVDNALQSGNSQESVTEQDSKDSTYSLSSTLTLSKADYEKHKVYACEVTHQGLSSPVTKSFNRGEC
notes: Humanized, human IgG1-E333A / kappa; also called h009-07E
On to B1, for which, in test [1], the EC50 was determined as 0.402 mg/L. In test [2], this molecule showed a Kd of 1.31 nM, a koff of 0.00138 s⁻¹ and a kon of 1.05e+06 M⁻¹ s⁻¹. This molecule had an EC50 in test [3] of 0.0259 mg/L. In test [4], the “IC50 (µg/ml), inhibition of CD38 enzyme activity (cGDPR production from NGD)” value (“IC50 (µg/ml), inhibition” for short) came out at 1.56 µg/mL and the “Imax (Maximum inhibition rate %)” value stood at 89.6%.

B2: h011-04 (antibody, human IgG1, kappa, V domains shown)
VH: EVQLVESGGGLVQPGGSLRLSCAASGFTFSDYGMHWVRQAPGKGLEWVAFISSGSSSIYYADTVKGRFTISRDNAKSSLFLQMTSLRAEDTAVYSCARNYVSSYGYFDYWGQGTTVTVSS
VL: DIVMTQSPDSLAVSLGERATINCRASENVDNYGISFMHWYQQKPGQPPKLLIYRASNLESGVPDRFSGSGSRTDFTLTISSLQAEDVAVYYCQQSNKDPLTFGGGTKVEIKR
In test [5], B2 showed a dissociation constant (Kd) of 0.299 nM, a dissociation rate constant (koff) of 0.00202 s⁻¹ and an on-rate constant (kon) of 6.76e+06 M⁻¹ s⁻¹.

B3: h011-06 (antibody, human IgG1, kappa, V domains shown)
VH: EVQLVESGGGLVQPGGSLRLSCAASGFTFSDYGMHWVRQAPGKGLEWVAFISSGSSSIYYADTVKGRFTISRDNAKSSLFLQMTSLRAEDTAVYSCARNYVSSYGYFDYWGQGTTVTVSS
VL: DIVMTQSPDSLAVSLGERATINCRASENVDNYGISFMHWYQQKPGQPPKLLIYRASNLESGIPDRFSGSGSRTDFTLTISSLQAEDVATYYCQQSNKDPLTFGGGTKVEIKR
Turning to B3, in test [5], the Kd is 0.3 nM, the koff worked out at 0.00201 s⁻¹ and the on-rate (kon) was 6.71e+06 M⁻¹ s⁻¹.

B4: ch-011 (antibody, human IgG1, V domains shown)
VH: EVQLVESGGGLVKPGGSLKLSCAASGFTFSDYGMHWVRQAPEKGLEWVAFISSGSSSIYYADTVKGRFTISRDNAKNTLFLQMTSLRSEDTAMYSCARNYVSSYGYFDYWGQGTTLTVSS
VL: DIVMTQSPASLAVSLGQRATISCRASENVDNYGISFMHWYQQKPGQPPKLLIYRASNLESGIPARFSGSGSRTDFTLTINPVETDDVATYYCQQSNKDPLTFGSGTKLEIK
notes: also called chimeric antibody of hybridoma clone m011
Consider B4, for which, in test [5], the Kd turned out to be 0.199 nM, the off-rate (koff) came out at 0.00148 s⁻¹ and the association rate constant (kon) was 7.46e+06 M⁻¹ s⁻¹.

B5: h160-07 (antibody, human IgG1, kappa, V domains shown)
VH: EVQLVESGGGLVQPGGSLRLSCAASGFTFSDYGMHWVRQAPGKGLEWIAFISTGSSNIYYVDKVKGRFTISRDNAKNTLYLQMTSLRAEDTAVYYCARNYVSSYGYFDYWGQGTTVTVSS
VL: DIVLTQSPASLAVSLGERATINCRASESVDNYGISFMHWYQQKPGQPPKLLIYRASNLESGVPARFSGSGSRTDFTLTISSLQAEDVAVYYCQQTNKDPLTFGGGTKVEIKR
Regarding B5, in test [5], the equilibrium dissociation constant (Kd) turned out to be 0.0748 nM, the off-rate (koff) stood at 0.000182 s⁻¹ and the kon was 2.43e+06 M⁻¹ s⁻¹.

B6: hu160E (antibody, human IgG1, kappa)
heavy: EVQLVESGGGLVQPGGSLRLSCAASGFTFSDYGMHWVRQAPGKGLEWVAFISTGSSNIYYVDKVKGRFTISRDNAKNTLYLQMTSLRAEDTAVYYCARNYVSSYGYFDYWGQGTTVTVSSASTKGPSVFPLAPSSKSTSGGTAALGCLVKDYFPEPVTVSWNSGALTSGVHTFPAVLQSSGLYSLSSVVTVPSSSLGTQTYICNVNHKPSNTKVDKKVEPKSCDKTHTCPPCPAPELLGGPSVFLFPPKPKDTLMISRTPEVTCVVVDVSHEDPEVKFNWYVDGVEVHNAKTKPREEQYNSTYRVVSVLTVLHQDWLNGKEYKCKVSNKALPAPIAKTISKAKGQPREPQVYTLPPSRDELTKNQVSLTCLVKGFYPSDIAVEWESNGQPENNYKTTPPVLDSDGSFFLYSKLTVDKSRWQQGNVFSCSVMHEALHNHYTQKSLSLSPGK
light: DIVMTQSPASLAVSLGERATINCRASESVDNYGISFMHWYQQKPGQPPKLLIYRASNLESGVPDRFSGSGSGTDFTLTISSLQAEDVAVYYCQQTNKDPLTFGGGTKVEIKRTVAAPSVFIFPPSDEQLKSGTASVVCLLNNFYPREAKVQWKVDNALQSGNSQESVTEQDSKDSTYSLSSTLTLSKADYEKHKVYACEVTHQGLSSPVTKSFNRGEC
notes: Humanized, human IgG1-E333A / kappa; also called h160-01E
Turning to B6, it took 0.474 mg/L to reach a half-maximal effect in test [1] (EC50). In addition, in test [2], the dissociation constant (Kd) was 0.0585 nM, the dissociation rate constant (koff) is 0.000115 s⁻¹ and the kon was 1.96e+06 M⁻¹ s⁻¹. The same molecule gave an EC50 in test [3] of 0.028 mg/L. Besides, in test [4], the “IC50 (µg/ml), inhibition” value amounted to 1.2 µg/mL and the “Imax (Maximum inhibition rate %)” value amounted to 47.7%.

B7: h011-05 (antibody, human IgG1, kappa, V domains shown)
VH: EVQLVESGGGLVQPGGSLRLSCAASGFTFSDYGMHWVRQAPGKGLEWVAFISSGSSSIYYADTVKGRFTISRDNAKSSLYLQMTSLRAEDTAVYYCARNYVSSYGYFDYWGQGTTVTVSS
VL: DIVMTQSPDSLAVSLGERATINCRASENVDNYGISFMHWYQQKPGQPPKLLIYRASNLESGIPDRFSGSGSRTDFTLTISSLQAEDVATYYCQQSNKDPLTFGGGTKVEIKR
In test [5], B7 yielded a dissociation constant (Kd) of 0.309 nM, a koff of 0.00213 s⁻¹ and a kon of 6.89e+06 M⁻¹ s⁻¹.

B8: h160-03 (antibody, human IgG1, kappa, V domains shown)
VH: EVQLVESGGGLVQPGGSLRLSCAASGFTFSDYGMHWVRQAPGKGLEWVAFISTGSSNIYYVDKVKGRFTISRDNAKNTLYLQMTSLRAEDTAVYYCARNYVSSYGYFDYWGQGTTVTVSS
VL: DIVLTQSPASLAVSLGERATINCRASESVDNYGISFMHWYQQKPGQPPKLLIYRASNLESGVPARFSGSGSRTDFTLTISSLQAEDVAVYYCQQTNKDPLTFGGGTKVEIKR
With B8, in test [5], the dissociation constant Kd came out at 0.0779 nM, the koff turned out to be 0.000187 s⁻¹ and the kon worked out at 2.4e+06 M⁻¹ s⁻¹.

B9: h160-02 (antibody, human IgG1, kappa)
heavy: not shown
light: DIVLTQSPASLAVSLGERATINCRASESVDNYGISFMHWYQQKPGQPPKLLIYRASNLESGVPDRFSGSGSGTDFTLTISSLQAEDVAVYYCQQTNKDPLTFGGGTKVEIKRTVAAPSVFIFPPSDEQLKSGTASVVCLLNNFYPREAKVQWKVDNALQSGNSQESVTEQDSKDSTYSLSSTLTLSKADYEKHKVYACEVTHQGLSSPVTKSFNRGEC
In test [5], B9 showed a Kd of 0.0846 nM, a koff of 0.000163 s⁻¹ and a kon of 1.93e+06 M⁻¹ s⁻¹.

B10: h160-06 (antibody, human IgG1, kappa)
heavy: not shown
light: DIVLTQSPASLAVSLGERATINCRASESVDNYGISFMHWYQQKPGQPPKLLIYRASNLESGVPDRFSGSGSGTDFTLTISSLQAEDVAVYYCQQTNKDPLTFGGGTKVEIKRTVAAPSVFIFPPSDEQLKSGTASVVCLLNNFYPREAKVQWKVDNALQSGNSQESVTEQDSKDSTYSLSSTLTLSKADYEKHKVYACEVTHQGLSSPVTKSFNRGEC
Consider B10, for which, in test [5], the dissociation constant Kd amounted to 0.0782 nM, the dissociation rate constant (koff) came out at 0.000164 s⁻¹ and the kon was found to be 2.09e+06 M⁻¹ s⁻¹.

B11: h160-05 (antibody, human IgG1, kappa)
heavy: not shown
light: DIVMTQSPASLAVSLGERATINCRASESVDNYGISFMHWYQQKPGQPPKLLIYRASNLESGVPDRFSGSGSGTDFTLTISSLQAEDVAVYYCQQTNKDPLTFGGGTKVEIKRTVAAPSVFIFPPSDEQLKSGTASVVCLLNNFYPREAKVQWKVDNALQSGNSQESVTEQDSKDSTYSLSSTLTLSKADYEKHKVYACEVTHQGLSSPVTKSFNRGEC
In test [5], B11 displayed a Kd of 0.0691 nM, an off-rate constant (koff) of 0.000141 s⁻¹ and an association rate constant (kon) of 2.05e+06 M⁻¹ s⁻¹.

B12: h160-08 (antibody, human IgG1, kappa, V domains shown)
VH: EVQLVESGGGLVQPGGSLRLSCAASGFTFSDYGMHWVRQAPGKGLEWIAFISTGSSNIYYVDKVKGRFTISRDNAKNTLYLQMTSLRAEDTAVYYCARNYVSSYGYFDYWGQGTTVTVSS
VL: DIVLTQSPASLAVSLGERATISCRASESVDNYGISFMHWYQQKPGQPPKLLIYRASNLESGIPARFSGSGSRTDFTLTISSLQAEDVAVYYCQQTNKDPLTFGGGTKVEIKR
In test [5], B12 returned a Kd of 0.0782 nM, an off-rate constant (koff) of 0.000179 s⁻¹ and an on-rate constant (kon) of 2.29e+06 M⁻¹ s⁻¹.

B13: h160-04 (antibody, human IgG1, kappa, V domains shown)
VH: EVQLVESGGGLVQPGGSLRLSCAASGFTFSDYGMHWVRQAPGKGLEWVAFISTGSSNIYYVDKVKGRFTISRDNAKNTLYLQMTSLRAEDTAVYYCARNYVSSYGYFDYWGQGTTVTVSS
VL: DIVLTQSPASLAVSLGERATISCRASESVDNYGISFMHWYQQKPGQPPKLLIYRASNLESGIPARFSGSGSRTDFTLTISSLQAEDVAVYYCQQTNKDPLTFGGGTKVEIKR
As for B13, in test [5], the Kd stood at 0.0867 nM, the koff was 0.000184 s⁻¹ and the kon came out at 2.12e+06 M⁻¹ s⁻¹.

B14: hu11E (antibody, human IgG1, kappa)
heavy: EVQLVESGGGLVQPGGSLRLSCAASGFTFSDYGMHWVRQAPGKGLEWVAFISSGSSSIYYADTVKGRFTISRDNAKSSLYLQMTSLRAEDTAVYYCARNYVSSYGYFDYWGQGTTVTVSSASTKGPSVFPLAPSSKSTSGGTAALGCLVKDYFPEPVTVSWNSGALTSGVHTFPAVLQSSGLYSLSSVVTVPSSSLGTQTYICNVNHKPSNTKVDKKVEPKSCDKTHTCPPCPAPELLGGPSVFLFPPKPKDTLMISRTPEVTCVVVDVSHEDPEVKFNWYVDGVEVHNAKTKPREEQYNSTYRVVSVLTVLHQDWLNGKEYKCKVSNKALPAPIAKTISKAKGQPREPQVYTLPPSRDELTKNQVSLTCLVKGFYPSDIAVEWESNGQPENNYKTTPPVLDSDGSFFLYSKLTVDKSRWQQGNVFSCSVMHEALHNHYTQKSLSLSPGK
light: DIVMTQSPDSLAVSLGERATINCRASENVDNYGISFMHWYQQKPGQPPKLLIYRASNLESGVPDRFSGSGSGTDFTLTISSLQAEDVAVYYCQQSNKDPLTFGGGTKVEIKRTVAAPSVFIFPPSDEQLKSGTASVVCLLNNFYPREAKVQWKVDNALQSGNSQESVTEQDSKDSTYSLSSTLTLSKADYEKHKVYACEVTHQGLSSPVTKSFNRGEC
notes: Humanized, human IgG1-E333A / kappa; also called h011-01E
B14 had an EC50 in test [1] of 0.481 mg/L. In test [2], this molecule displayed an equilibrium dissociation constant (Kd) of 0.568 nM, a koff of 0.00117 s⁻¹ and a kon of 2.07e+06 M⁻¹ s⁻¹. The molecule further returned an EC50 in test [3] of 0.0276 mg/L. Also, in test [4], the “IC50 (µg/ml), inhibition” value was determined as 1.83 µg/mL and the “Imax (Maximum inhibition rate %)” value was determined as 44.3%.

B15: ch-009 (antibody, human IgG1, V domains shown)
VH: EFQLQQSGPELVKPGASVKISCKASGYSFTDYNLNWVKQSNGKSLEWIGVINPKYDAINYNQKFKDKATLTVDQSSSTAYMQLSSLTSEDSAVYYCAREGWGKALDYWGPGTSVIVSS
VL: DFVLTQSPATLSVTPGDSVSLSCRASQSIYTNLHWYQQKSHESPRLLIKYASQSISGIPSRFSGSGSGTDFTLSINSVETEDSGMYFCQQSNSWPLTFGAGTKLELK
notes: also called chimeric antibody of hybridoma clone m009
In test [5], B15 gave a dissociation constant (Kd) of 0.234 nM, a koff of 0.000477 s⁻¹ and an on-rate constant (kon) of 2.04e+06 M⁻¹ s⁻¹.

B16: ch-160 (antibody, human IgG1, V domains shown)
VH: EVQLVESGGGLVKPGGSLKLSCVASGFTFSDYGMHWVRQAPEKGLEWIAFISTGSSNIYYVDKVKGRFTISRDNAKNTLFLQMTSLRSEDTAMYYCARNYVSSYGYFDYWGQGTTLTVSS
VL: DIVLTQSPASLAVSLGQRATVSCRASESVDNYGISFMHWYQQKPGQPPKLLIYRASNLESGIPARFSGSGSRTDFTLTINPVETDDVATYYCQQTNKDPLTFGGGTKLELK
notes: also called chimeric antibody of hybridoma clone m160
In test [5], B16 registered a dissociation constant Kd of 0.062 nM, a dissociation rate constant (koff) of 0.00017 s⁻¹ and a kon of 2.74e+06 M⁻¹ s⁻¹.

(Values after US20220275100A1 (JIANGSU HENGRUI MEDICINE, published 2022).)
